Consider one substance from PMC5035961.

For test [1], the target named is Influenza A nucleoprotein (strain A/WSN/1933, H1N1) (influenza A virus, H1N1 strain A/WSN/1933) (UniProt P15682). Nature of the test: SEC-MALLS.
Test [2] has the same target. Nature of the test: negative stain electron microscopy.

The term stoichiometry N denotes a count of units in the complex or per binding partner. With “Influenza A nucleoprotein (strain A/WSN/1933, H1N1) (from UniProt P15682 1-498) (natural protein)”, the stoichiometry N in test [1] and in test [2] was 3 throughout.
